The results in this text go back to patent publication US20240132577A1 (US Dept. of Health and Human Services, published 2024).

Values joined by “and” are separate entries in the source; they are usually repeats but may differ in a detail not shown here. Identical values can stand only once.

Sequences and labels used below:
B1: Nb47 (VHH)
VHH: QVQLQESGGGLVQAGGSLRLSCAASGRTLSRYSMSWFRQAPGKEREFVAGIRWSGSNTYYADSMKQRFTISQDNVKNTVHLQMNSLKPEDTAVYYCAATSRSDHYLNAVAWTLPNEYDYWGQGTQVTVSS
B2: Nb6 (VHH)
VHH: QVQLQESGGGLVQAGGSLRLSCAASGNIANSNSMAWWRQTPGNQHERVAIISHGVTNYADSVKGRFTVSRDNAKNTLYLQMNNLKPEDTAAYYCYADLFGNTYWGQGTQVTVSS
B3: Nb7 (VHH)
VHH: QVQLQESGGGLVQAGDSLRLSCLSSERTFRRYGIAWFRQAPGKEREFVAAVDRSHSQTNYADFVQGRFTISTVYAKNMVYLQMNSLKPEDTAVYYCAAASYEKGSDYTSWNTDRGYDYWGQGTQVTVSS
B4: Nb43 (VHH)
VHH: QVQLQESGGGLVQAGDSLKLSCAASGRTFSDSAMGWFRQAPGEEREFVAVITWNGGTTYYADSVKGRFTISRDDAKNTVYLQMNSLKPEDTAVYYCAADTSRWDYSLTYHYTREYNYWGQGTQVTVSS
B5: mNb35 (VHH)
VHH: QVQLVESGGGLVQAGGSLRLSCAASGRTFSKYAMGWFRQAPGKERKFVATISWSGDSAFYADSVKGRFTISRDNARNTVYLQMNSLKPEDTAVYYCTADRGMGYGDFMDYWGQGTSVTVSS
B6: Nb15-tri-IgG1 (Fc fusion)
chain: QVQLQESGGGLVQAGGSLRVSCAASGLPFSDYLMGWFRQAPGKEREYVAAISQNGGHTYADSVLGRFTISRDNAKNTVYLQMNMLTPGDTAVYSCAARRPGGGRWDAAHDYNYWGQGTQVTVSSGGGGSGGGGSGGGGSQVQLQESGGGLVQAGGSLRVSCAASGLPFSDYLMGWFRQAPGKEREYVAAISQNGGHTYADSVLGRFTISRDNAKNTVYLQMNMLTPGDTAVYSCAARRPGGGRWDAAHDYNYWGQGTQVTVSSGGGGSGGGGSGGGGSQVQLQESGGGLVQAGGSLRVSCAASGLPFSDYLMGWFRQAPGKEREYVAAISQNGGHTYADSVLGRFTISRDNAKNTVYLQMNMLTPGDTAVYSCAARRPGGGRWDAAHDYNYWGQGTQVTVSSDKTHTCPPCPAPELLGGPSVFLFPPKPKDTLMISRTPEVTCVWDVSHEDPEVKFNWYVDGVEVHNAKTKPREEQYNSTYRWSVLTVLHQDWLNGKEYKCKVSNKALPAPIEKTISKAKGQPREPQVYTLPPSREEMTKNQVSLTCLVKGFYPSDIAVEWESNGQPENNYKTTPPVLDSDGSFFLYSKLTVDKSRWQQGNVFSCSVMHEALHNHYTQKSLSLSPGKHHHHHH
B7: Nb19-tri-IgG1 (Fc fusion)
chain: QVQLQESGGGLVQAGGSLRLSCAASGSGFSIHAMGWYRQAPGKQREFVAVVGHKTNYADSVKGRFTISRDVGKNTVELQMNSLKVEDTAVYYCYCNTIVTMTGVPDAVWGQGTQVTVSSGGGGSGGGGSGGGGSQVQLQESGGGLVQAGGSLRLSCAASGSGFSIHAMGWYRQAPGKQREFVAVVGHKTNYADSVKGRFTISRDVGKNTVELQMNSLKVEDTAVYYCYCNTIVTMTGVPDAVWGQGTQVTVSSGGGGSGGGGSGGGGSQVQLQESGGGLVQAGGSLRLSCAASGSGFSIHAMGWYRQAPGKQREFVAVVGHKTNYADSVKGRFTISRDVGKNTVELQMNSLKVEDTAVYYCYCNTIVTMTGVPDAVWGQGTQVTVSSDKTHTCPPCPAPELLGGPSVFLFPPKPKDTLMISRTPEVTCVWDVSHEDPEVKFNWYVDGVEVHNAKTKPREEQYNSTYRWSVLTVLHQDWLNGKEYKCKVSNKALPAPIEKTISKAKGQPREPQVYTLPPSREEMTKNQVSLTCLVKGFYPSDIAVEWESNGQPENNYKTTPPVLDSDGSFFLYSKLTVDKSRWQQGNVFSCSVMHEALHNHYTQKSLSLSPGKHHHHHH
B8: Nb56-tri-IgG1 (Fc fusion)
chain: QVQLQESGGGLVQAGDSLRLSCVASERTFRRYGMGWFRQAPGKEREFVAAVDRSHTKTGYADFVKGRFTISTNYENMVYLQMNSLKPEDTAVYYCAAPSYEKGSDPTSWNTDRGYDYWGQGTQVTVSSGGGGSGGGGSGGGGSQVQLQESGGGLVQAGDSLRLSCVASERTFRRYGMGWFRQAPGKEREFVAAVDRSHTKTGYADFVKGRFTISTNYENMVYLQMNSLKPEDTAVYYCAAPSYEKGSDPTSWNTDRGYDYWGQGTQVTVSSGGGGSGGGGSGGGGSQVQLQESGGGLVQAGDSLRLSCVASERTFRRYGMGWFRQAPGKEREFVAAVDRSHTKTGYADFVKGRFTISTNYENMVYLQMNSLKPEDTAVYYCAAPSYEKGSDPTSWNTDRGYDYWGQGTQVTVSSDKTHTCPPCPAPELLGGPSVFLFPPKPKDTLMISRTPEVTCVWDVSHEDPEVKFNWYVDGVEVHNAKTKPREEQYNSTYRWSVLTVLHQDWLNGKEYKCKVSNKALPAPIEKTISKAKGQPREPQVYTLPPSREEMTKNQVSLTCLVKGFYPSDIAVEWESNGQPENNYKTTPPVLDSDGSFFLYSKLTVDKSRWQQGNVFSCSVMHEALHNHYTQKSLSLSPGKHHHHHH
B9: Nb17-tri-IgG1 (Fc fusion)
chain: QVQLQESGGGLVQTGGSLRLSCAASGRTFGIYRMGWFRQAPGKEREFVAAITSSADTAQYRDSVKGRFAISRDNAKNTLYLQMNSLKPEDTAIYYCAARDPTTLEYGNWGQGTQVTVSSGGGGSGGGGSGGGGSQVQLQESGGGLVQTGGSLRLSCAASGRTFGIYRMGWFRQAPGKEREFVAAITSSADTAQYRDSVKGRFAISRDNAKNTLYLQMNSLKPEDTAIYYCAARDPTTLEYGNWGQGTQVTVSSGGGGSGGGGSGGGGSQVQLQESGGGLVQTGGSLRLSCAASGRTFGIYRMGWFRQAPGKEREFVAAITSSADTAQYRDSVKGRFAISRDNAKNTLYLQMNSLKPEDTAIYYCAARDPTTLEYGNWGQGTQVTVSSDKTHTCPPCPAPELLGGPSVFLFPPKPKDTLMISRTPEVTCVWDVSHEDPEVKFNWYVDGVEVHNAKTKPREEQYNSTYRWSVLTVLHQDWLNGKEYKCKVSNKALPAPIEKTISKAKGQPREPQVYTLPPSREEMTKNQVSLTCLVKGFYPSDIAVEWESNGQPENNYKTTPPVLDSDGSFFLYSKLTVDKSRWQQGNVFSCSVMHEALHNHYTQKSLSLSPGKHHHHHH

For one assay, the target named is T1, SARS-CoV-2 S protein (C-terminally truncated, on pseudotyped virus) (SARS-CoV-2 (Wuhan-Hu-1), UniProt P0DTC2 14-1254). The assay is described as follows: cell-based or functional assay.
With B1, the “IC50 (pseudovirus neutralization)” value is 731 ng/ml and 54.2 nM; the “IC90 (pseudovirus neutralization)” value is > 10000 ng/ml and > 500 nM.

Regarding B2, the “IC50 (pseudovirus neutralization)” value is 141 ng/ml and 10.5 nM; the “IC90 (pseudovirus neutralization)” value is 354 ng/ml and 26.3 nM.

For B3, the “IC50 (pseudovirus neutralization)” value is 43 ng/ml and 3.2 nM; the “IC90 (pseudovirus neutralization)” value is 451 ng/ml and 33.4 nM.

Take B4: the “IC50 (pseudovirus neutralization)” value was 281 ng/ml and 20.9 nM; the “IC90 (pseudovirus neutralization)” value was 5330 ng/ml and 395 nM.

Turning to B5, the “IC50 (pseudovirus neutralization)” value is 209 ng/ml and 15.5 nM; the “IC90 (pseudovirus neutralization)” value is 692 ng/ml and 51.3 nM.

The target in a further assay is T1, SARS-CoV-2 S protein (C-terminally …). The assay is described as follows: cell-based or functional assay. The source holds these as a separate data set.
B6: the “IC50 (pseudovirus neutralization)” value was 10 ng/ml and 142 nM; the “IC90 (pseudovirus neutralization)” value was 26.9 ng/ml and 381 nM.

With B7, the “IC50 (pseudovirus neutralization)” value is 0.65 ng/ml and 9.38 nM; the “IC90 (pseudovirus neutralization)” value is 3.96 ng/ml and 57.6 nM.

Turning to B8, the “IC50 (pseudovirus neutralization)” value is 3.91 ng/ml and 54.5 nM; the “IC90 (pseudovirus neutralization)” value is 18.6 ng/ml and 260 nM.

On to B9, for which the “IC50 (pseudovirus neutralization)” value is 1.24 ng/ml and 18 nM; the “IC90 (pseudovirus neutralization)” value is 4.7 ng/ml and 68.2 nM.

Another assay shares this target. The experiment in a line: cell-based or functional assay. The source holds these as a separate data set.
As for B6, the “IC50 (variant pseudovirus neutralization)” value came to 73 pM.

Consider B7, for which the “IC50 (variant pseudovirus neutralization)” value is 12 pM.

For B8, the “IC50 (variant pseudovirus neutralization)” value came out at 43 pM.

With B9, the “IC50 (variant pseudovirus neutralization)” value worked out at 15 pM.

The next assay has as its target SARS-CoV-2 S protein K417N + E484K + N501Y (on pseudotyped virus) (SARS-CoV-2, UniProt P0DTC2 14-1254). The assay is described as follows: cell-based or functional assay.
As to B6, the “IC50 (variant pseudovirus neutralization)” value was 30 pM.

As to B7, the “IC50 (variant pseudovirus neutralization)” value was determined as 115 pM.

On to B8, for which the “IC50 (variant pseudovirus neutralization)” value came out at 14 pM.

For B9, the “IC50 (variant pseudovirus neutralization)” value worked out at 47400 pM.

The next assay concerns the target SARS-CoV-2 S protein K417N (on pseudotyped virus) (SARS-CoV-2, UniProt P0DTC2 14-1254). The assay is described as follows: cell-based or functional assay.
In the case of B6, the “IC50 (variant pseudovirus neutralization)” value worked out at 27 pM.

Turning to B7, the “IC50 (variant pseudovirus neutralization)” value came to 6 pM.

For B8, the “IC50 (variant pseudovirus neutralization)” value was found to be 21 pM.

For the molecule B9, the “IC50 (variant pseudovirus neutralization)” value was 8 pM.

For another assay, the target named is SARS-CoV-2 S protein R683G (on pseudotyped virus) (SARS-CoV-2, UniProt P0DTC2 14-1254). The assay is described as follows: cell-based or functional assay.
For the molecule B6, the “IC50 (variant pseudovirus neutralization)” value turned out to be 13 pM.

Take B7: the “IC50 (variant pseudovirus neutralization)” value was 3 pM.

B8: the “IC50 (variant pseudovirus neutralization)” value came to 8 pM.

Consider B9, for which the “IC50 (variant pseudovirus neutralization)” value amounted to 4 pM.

In a further assay the target is SARS-CoV-2 S protein E484K (on pseudotyped virus) (SARS-CoV-2, UniProt P0DTC2 14-1254). The assay is described as follows: cell-based or functional assay.
As for B6, the “IC50 (variant pseudovirus neutralization)” value was 41 pM.

For the molecule B7, the “IC50 (variant pseudovirus neutralization)” value was determined as 95 pM.

Turning to B8, the “IC50 (variant pseudovirus neutralization)” value stood at 37 pM.

In the case of B9, the “IC50 (variant pseudovirus neutralization)” value is 50000 pM.

A further assay deals with SARS-CoV-2 S protein N501Y (on pseudotyped virus) (SARS-CoV-2, UniProt P0DTC2 14-1254). The experiment in a line: cell-based or functional assay.
For the molecule B6, the “IC50 (variant pseudovirus neutralization)” value was 21 pM.

Regarding B7, the “IC50 (variant pseudovirus neutralization)” value was 10 pM.

For B8, the “IC50 (variant pseudovirus neutralization)” value came to 28 pM.

As for B9, the “IC50 (variant pseudovirus neutralization)” value is 10 pM.
